T1: biotinylated GITR (human, UniProt Q9Y5U5 26-161, limits assumed, biotinylated (sites not given))
T1 construct: also called GITR-bio; Biotin-GITR
T1 sequence: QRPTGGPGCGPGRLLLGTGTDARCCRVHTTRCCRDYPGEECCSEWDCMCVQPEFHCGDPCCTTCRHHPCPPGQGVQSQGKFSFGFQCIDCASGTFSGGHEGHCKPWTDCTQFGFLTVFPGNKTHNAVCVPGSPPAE


Target: T1, biotinylated GITR
Experiment: BLI (Octet), biotin-GITR on streptavidin tips, antibody supernatant
Method: Several hundred germlined antibodies were selected based on binding kinetics as determined by Octet measurements (Octet RED 96 system; ForteBio™ Inc., Menlo Park, Calif.). The experimental procedure was configured according to the instruction manual of the instrument. Biotin-GITR was bound to Streptavidin biosensor (SA) and PBS (pH 7.4) was used as a blank control. Briefly, the interaction analyses were conducted at 30° C. in running buffer (PBS, 0.05% Tween, pH7.4). Sensor tips were pre-wet for 10 minutes in running buffer immediately prior to use, and the micro plates used in the Octet were filled with 200 μl of sample or buffer per well and agitated at 800 rpm. For the experiments, commercially available precoated SA tips were used. Biotinylated GITR was loaded onto the ForteBio SA fibers in PBS pH7.4 for 10 minutes and washed for 4 minutes. For the association phase, the ligand-coated SA tips were immersed for 5 minutes in cell culture supernatant that was diluted 1:10 in running buffer prior to the measurement. Dissociation of the antibody-antigen complex was measured in wells containing the Octet buffer alone for 5 minutes. After each run, the tips were regenerated with Glycine (10 mM, pH 2.0). Affinity, Kₒₙ and Koff were determined with Octet evaluation software v6.3 using a 1:1 binding model with local full fitting.

Kd	koff	kon	Binder
0.911 nM	0.00056 s⁻¹	615000 M⁻¹ s⁻¹	germline variant antibody 10 (H1916A11 / K1916A11) (antibody, V domains shown, IGHG1/IGKC expression vectors; measured from CHO culture supernatant; also called Antibody ID 10) VH: QVQLVQSGAEVKKPGASVKVSCKASGYTFTEYAMYWVRQAPGQGLEWMGLIRTYSGGVSYNQKFRGRVTMTVDKSISTAYMELSRLRSDDTAVYYCAKSGTVRGFAYWGQGTLVTVSS VL: DIVMTQSPDSLAVSLGERATINCKSSQSLLNSSNQKNYLSWYQQKPGQPPKLLIYWASTRESGVPDRFSGSGSGTDFTLTISSVQAEDVAVYHCQNDYSYPYTFGQGTKLEIK
1.47 nM	0.000523 s⁻¹	356000 M⁻¹ s⁻¹	germline variant antibody 16 (H1916B06 / K1916B06) (antibody, V domains shown, IGHG1/IGKC expression vectors; measured from CHO culture supernatant; also called Antibody ID 16) VH: QVQLVQSGTEVKKPGASVKVSCKASGYTFTGYAMYWVRQAPGQGLEWIGLIRTFSGGVTYNQKFRERVTMTVDKSISTAYMELSRLRSDDTAVYYCAKSGTVRGFAYWGQGTLVTVSS VL: DIVMTQSPDSLAVSLGERATINCKSSQSLLNSGNQKNYLTWYHQKPGQPPKLLIYWASTRESGVPDRFTGSGSGTDFTLTISSVQAEDVAVYHCQNDYSYPYTFGQGTKLEIK
0.0875 nM	0.00075 s⁻¹	8.57e+06 M⁻¹ s⁻¹	germline variant antibody 38 (H1916D08 / K1916D08) (antibody, V domains shown, IGHG1/IGKC expression vectors; measured from CHO culture supernatant; also called Antibody ID 38) VH: QVQLVQSGTEVKKPGASVKVSCKGSGYTFTGYAMYWVRQAPGQGLEWIGVIKTYSGGVTYNQKFRGRVTMTVDKSISTAYMELSRLRSDDTAVYYCAKSGTVRGFAYWGQGTLVTVSS VL: DIVMTQSPDSLAVSLGERATINCKSSQSLLNSGNQKNYLTWYQQKPGQPPKLLIYWASTRESGVPDRFSGSGSGTDFTLTISSLQAEDVAVYYCQNDYSYPYTFGQGTKLEIK
1.69 nM	0.000632 s⁻¹	374000 M⁻¹ s⁻¹	germline variant antibody 25 (H1916C07 / K1916C07) (antibody, V domains shown, IGHG1/IGKC expression vectors; measured from CHO culture supernatant; also called Antibody ID 25) VH: QVQLVQSGAEVKKPGASVKVSCKASGYTFTEYAMYWVRQAPGQGLEWMGLIRTFSGGVSYNQKFRGRATMTVDTSISTAYMELSRLRSDDTAVYYCAKSGTVRGFAYWGQGTLVTVSS VL: DIVMTQSPDSLAVSLGERATINCKSSQSLLNSGNQKNYLTWYQQKPGQPPKMLIYWASTRESGVPDRFTGSGSGTDFTLTISSVQAEDVAVYYCQNDYSFPYTFGQGTKLEIK
0.0901 nM	0.00101 s⁻¹	1.12e+07 M⁻¹ s⁻¹	germline variant antibody 33 (H1916D03 / K1916D03) (antibody, V domains shown, IGHG1/IGKC expression vectors; measured from CHO culture supernatant; also called Antibody ID 33) VH: QVQLVQSGAEVKKPGASVKVSCKASGYTFTGYAMYWVRQAPGQGMEWIGLIRTYSGGVTYNQKFQGRVTMTVDTSISTAYMELSRLRSDDTAVYYCAKSGTVRGFAYWGQGTLVTVSS VL: DIVMTQSPDSLAVSLGERATINCKSSQSLLNSGNQKNYLSWYHQKPGQPPKLLIYWASTRESGVPDRFSGSGSGTDFTLTISSVQAEDVAVYHCQNEYSYPYTFGQGTKLEIK
0.458 nM	0.000255 s⁻¹	557000 M⁻¹ s⁻¹	germline variant antibody 34 (H1916D04 / K1916D04) (antibody, V domains shown, IGHG1/IGKC expression vectors; measured from CHO culture supernatant; also called Antibody ID 34) VH: QVQLVQSGAEVKKPGASVKVSCKASGYTFTDYAMYWVRQAPGQGMEWIGVIRTFSGGVTYNQKFRGRVTMTVDTSISTAYMELSRLRSDDTAVYYCAKSGTVRGFAYWGQGTLVTVSS VL: DIVMTQSTDSLAVSLGERATINCKSSQSLLNSSNQKNYLTWYQQKPGQPPKLLIYWASTRESGVPDRFTGSGSGTDFTLTISSLQAEDVAVYHCQNDYSYPYTFGQGTKLEIK
4.23 nM	0.00234 s⁻¹	553000 M⁻¹ s⁻¹	germline variant antibody 2 (H1916A03 / K1916A03) (antibody, V domains shown, IGHG1/IGKC expression vectors; measured from CHO culture supernatant; also called Antibody ID 2) VH: QVQLVQSGAEVKKPGASVKVSCKASGYTFTEYAMHWVRQAPGQGMEWIGLIRTYSGGVSYNQKFRGRATMTVDKSISTAYMELSRLRSDDTAVYYCAKSGTVRGFAYWGQGTLVTVSS VL: DIVMTQSPDSLAVSLGERATINCKSSQSLLNSGNQKNYLSWYHQKPGQPPKLLIYWASTRESGVPDRFSGSGSGTDFTLTISSVQAEDVAVYYCQNEYSFPYTFGQGTKLEIK
2.22 nM	0.000616 s⁻¹	278000 M⁻¹ s⁻¹	germline variant antibody 15 (H1916B05 / K1916B05) (antibody, V domains shown, IGHG1/IGKC expression vectors; measured from CHO culture supernatant; also called Antibody ID 15) VH: QVQLVQSGAEVKKPGASVKVSCKGSGYTFTDYAMYWVRQAPGQGLEWIGVIRTFSGDVSYNQKFRERATMTVDKSISTAYMELSRLRSDDTAVYYCAKSGTVRGFAYWGQGTLVTVSS VL: DIVMTQSPDSLAVSLGERATINCKSSQSLLNSGNQKNYLSWYQQKPGQPPKLLIYWASTRESGVPDRFTGSGSGTDFTLTISSLQAEDVAVYHCQNDYSYPYTFGQGTKLEIK
1.06 nM	0.000313 s⁻¹	295000 M⁻¹ s⁻¹	germline variant antibody 29 (H1916C11 / K1916C11) (antibody, V domains shown, IGHG1/IGKC expression vectors; measured from CHO culture supernatant; also called Antibody ID 29) VH: QVQLVQSGAEVKKPGASVKVSCKGSGYTFTDYAMYWVRQAPGQGLEWIGVIRTFSGGVTYNQKFKGRATMTVDTSISTAYMELSRLRSDDTAVYYCAKSGTVRGFAYWGQGTLVTVSS VL: DIVMTQSPDSLAVSLGERATINCKSSQSLLNSSNQKNYLSWYQQKPGQPPKLLIYWASTRESGVPDRFSGSGSGTDFTLTISSLQAEDVAVYHCQNDYSYPYTFGQGTKLEIK
0.44 nM	0.00028 s⁻¹	638000 M⁻¹ s⁻¹	germline variant antibody 36 (H1916D06 / K1916D06) (antibody, V domains shown, IGHG1/IGKC expression vectors; measured from CHO culture supernatant; also called Antibody ID 36) VH: QVQLVQSGAEVKKPGASVKVSCKGSGYTFTDYAMYWVRQAPGQGMEWIGVIRTFSGGVSYNQKFRDRVTMTVDKSISTAYMELSRLRSDDTAVYYCAKSGTVRGFAYWGQGTLVTVSS VL: DIVMTQSPDSLAVSLGERATINCKSSQSLLNSSNQKNYLTWYHQKPGQPPKMLIYWASTRESGVPDRFSGSGSGTDFTLTISSVQEEDVAVYHCQNDYSFPYTFGQGTKLEIK
1.28 nM	0.000477 s⁻¹	373000 M⁻¹ s⁻¹	germline variant antibody 43 (H1916E03 / K1916E03) (antibody, V domains shown, IGHG1/IGKC expression vectors; measured from CHO culture supernatant; also called Antibody ID 43) VH: QVQLVQSGAEVKKPGASVKVSCKGSGYTFTEYAMYWVRQAPGQGMEWIGLIRTFSGDVSYNQKFKGRATMTVDKSISTAYMELSRLRSDDTAVYYCAKSGTVRGFAYWGQGTLVTVSS VL: DIVMTQSPDSLAVSLGERATINCKSSQSLLNSGNQKNYLTWYQQKPGQPPKMLIYWASTRESGVPDRFTGSGSGTDFTLTISSVQAEDVAVYHCQNDYSYPYTFGQGTKLEIK
2.7 nM	0.000579 s⁻¹	214000 M⁻¹ s⁻¹	germline variant antibody 6 (H1916A07 / K1916A07) (antibody, V domains shown, IGHG1/IGKC expression vectors; measured from CHO culture supernatant; also called Antibody ID 6) VH: QVQLVQSGAEVKKPGASVKVSCKGSGYTFTEYAMYWVRQAPGQGLEWMGLIRTFSGGVSYNQKFKGRATMTVDTSISTAYMELSRLRSDDTAVYYCAKSGTVRGFAYWGQGTLVTVSS VL: DIVMTQSPDSLAVSLGERATINCKSSQSLLNSGNQKNYLSWYQQKPGQPPKMLIYWASTRESGVPDRFTGSGSGTDFTLTISSLQAEDVAVYHCQNDYSYPYTFGQGTKLEIK
0.255 nM	0.000997 s⁻¹	3.91e+06 M⁻¹ s⁻¹	germline variant antibody 39 (H1916D09 / K1916D09) (antibody, V domains shown, IGHG1/IGKC expression vectors; measured from CHO culture supernatant; also called Antibody ID 39) VH: QVQLVQSGAEVKKPGASVKVSCKGSGYTFTGYAMHWVRQAPGQGLEWMGLIRTYSGGVSYNQKFRERATMTVDTSISTAYMELSRLRSDDTAVYYCAKSGTVRGFAYWGQGTLITVSS VL: DIVMTQSPDSLAVSLGERATINCKSSQSLLNSSNQKNYLTWYQQKPGQPPKLLIYWASTRESGVPDRFTGSGSGTDFTLTISSVQAEDVAVYHCQNEYSFPYTFGQGTKLEIK
1.43 nM	0.000501 s⁻¹	351000 M⁻¹ s⁻¹	germline variant antibody 4 (H1916A05 / K1916A05) (antibody, V domains shown, IGHG1/IGKC expression vectors; measured from CHO culture supernatant; also called Antibody ID 4) VH: QVQLVQSGAEVKKPGASVKVSCKASGYTFTEYAMYWVRQAPGQSLEWMGLIRTFSGDVSYNQKFQDRVTMTVDKSISTAYMELSRLRSDDTAVYYCAKSGTVRGFAYWGQGTLVTVSS VL: DIVMTQSPDSLAVSLGERATINCKSSQSLLNSSNQKNYLSWYHQKPGQPPKLLIYWASTRESGVPDRFTGSGSGTDFTLTISSVQAEDVAVYYCQNDYSYPYTFGQGTKLEIK
2.68 nM	0.000784 s⁻¹	293000 M⁻¹ s⁻¹	germline variant antibody 9 (H1916A10 / K1916A10) (antibody, V domains shown, IGHG1/IGKC expression vectors; measured from CHO culture supernatant; also called Antibody ID 9) VH: QVQLVQSGAEVKKPGASVKVSCKASGYTFTGYAMYWVRQAPGQGLEWMGLIRTYSGEVSYNQKFRGRATMTVDKSISTAYMELSRLRSDDTAVYYCAKSGTVRGFAYWGQGTLVTVSS VL: DIVMTQSPDSLAVSLGERATINCKSSQSLLNSGNQKNYLTWYQQKPGQPPKMLIYWASTRESGVPDRFSGSGSGTDFTLTISSLQAEDVAVYHCQNDYSFPYTFGQGTKLEIK
0.418 nM	0.000211 s⁻¹	505000 M⁻¹ s⁻¹	germline variant antibody 31 (H1916D01 / K1916D01) (antibody, V domains shown, IGHG1/IGKC expression vectors; measured from CHO culture supernatant; also called Antibody ID 31) VH: QVQLVQSGTEVKKPGASVKVSCKGSGYTFTEYAMYWVRQAPGQGLEWMGLIRTFSGGLTYNQKFKDRVTMTVDKSISTAYMELSRLRSDDTAVYYCAKSGTVRGFAYWGQGIPVTVSS VL: DIVMTQSPDSLAVSLGERATINCKSSQSLLNSSNQKNYLTWYQQKPGQPPKLLIYWASTRESGVPDRFTGSGSGTDFTLTISSLQAEDVAVYHCQNDYSYPYTFGQGTKLEIK
2.1 nM	0.000847 s⁻¹	403000 M⁻¹ s⁻¹	germline variant antibody 11 (H1916Al2 / K1916A12) (antibody, V domains shown, IGHG1/IGKC expression vectors; measured from CHO culture supernatant; also called Antibody ID 11) VH: QVQLVQSGAEVKKPGASVKVSCKGSGYTFTDYAMHWVRQAPGQGLEWMGLIRTYSGGVSYNQKFRGRVTMTVDTSISTAYMELSRLRSDDTAVYYCAKSGTVRGFAYWGQGTLVTVSS VL: DIVMTQSPDSLAVSLGERATINCKSSQSLLNSSNQKNYLSWYQQKPGQPPKLLIYWASTRESGVPDRFSGSGSGTDFTLTISSVQAEDVAVYHCQNDYSFPYTFGQGTKLEIK
0.744 nM	0.000348 s⁻¹	468000 M⁻¹ s⁻¹	germline variant antibody 1 (H1916A01 / K1916A01) (antibody, V domains shown, IGHG1/IGKC expression vectors; measured from CHO culture supernatant; also called Antibody ID 1) VH: QVQLVQSGTEVKKPGASVKVSCKGSGYTFTEYAMYWVRQAPGQGLEWIGVIRTYSGGVTYNQKFQGRATMTVDTSISTAYMELSRLRSDDTAVYYCAKSGTVRGFAYWGQGTLVTVSS VL: DIVMTQSPDSLAVSLGERATINCKSSQSLLNSGNQKNYLTWYHQKPGQPPKMLIYWASTRESGVPDRFSGSGSGTDFTLTISSVQAEDVAVYHCQNDYSYPYTFGQGTKLEIK
